Test results published in the supplement of paper PMC11246515.
± gives the standard deviation of the averaged measurements.

Assay: total protein half-life in vivo (active degradation + dilution); higher = more stable protein
[1] = E. coli NCM3722 delta-clpP delta-lon delta-hslV, growth: N-lim chemostat, doubling time 6 h
[2] = E. coli NCM3722 delta-clpP, growth: N-lim chemostat, doubling time 6 h
[3] = E. coli NCM3722 delta-hslV, growth: N-lim chemostat, doubling time 6 h
[4] = E. coli NCM3722 delta-lon, growth: N-lim chemostat, doubling time 6 h
[5] = E. coli NCM3722 delta-smpB, growth: N-lim chemostat, doubling time 6 h
[6] = wild type E. coli NCM3722, growth: C-lim chemostat, doubling time 3 h
[7] = wild type E. coli NCM3722, growth: C-lim chemostat, doubling time 6 h
[8] = wild type E. coli NCM3722, growth: C-lim chemostat, doubling time 12 h
[9] = wild type E. coli NCM3722, growth: N-lim chemostat, doubling time 6 h
[10] = wild type E. coli NCM3722, growth: N-lim chemostat, doubling time 12 h
[11] = wild type E. coli NCM3722, growth: P-lim chemostat, doubling time 6 h
[12] = wild type E. coli NCM3722, growth: P-lim chemostat, doubling time 12 h

Sequence	total protein half-life in vivo [1] [h]	total protein half-life in vivo [2] [h]	total protein half-life in vivo [3] [h]	total protein half-life in vivo [4] [h]	total protein half-life in vivo [5] [h]	total protein half-life in vivo [6] [h]	total protein half-life in vivo [7] [h]	total protein half-life in vivo [8] [h]	total protein half-life in vivo [9] [h]	total protein half-life in vivo [10] [h]	total protein half-life in vivo [11] [h]	total protein half-life in vivo [12] [h]
MATLTEDDVLEQLDAQDNLFSFMKTAHTILLQGIRQFLPSLFVDNDEEIVEYAVKPLLAQSGPLDDIDVALRLIYALGKMDKWLYADITHFSQFWHYLNEQDETPGFADDMTWDFISNVNSITRNAMLYDALKAMKFADFSVWSEARFSGMVKTALTLAVTTTLKELTP	4.21 ± 0.82	3.67	2.45	2.61 ± 0.36	2.07	2.02	> 8	4.45 ± 0.14	2.38	4.18	2.29	3.96 ± 1
MATPHINAEMGDFADVVLMPGDPLRAKYIAETFLEDAREVNNVRGMLGFTGTYKGRKISVMGHGMGIPSCSIYTKELITDFGVKKIIRVGSCGAVLPHVKLRDVVIGMGACTDSKVNRIRFKDHDFAAIADFDMVRNAVDAAKALGIDARVGNLFSADLFYSPDGEMFDVMEKYGILGVEMEAAGIYGVAAEFGAKALTICTVSDHIRTHEQTTAAERQTTFNDMIKIALESVLLGDKE [P0ABP8]	5.35 ± 0.52	4.9 ± 0.79	4.26 ± 0.18	5.28 ± 0.12	4.44 ± 0.086	3.14 ± 0.25	5.99 ± 0.48	12.6 ± 1.4	4.38 ± 0.34	7.48 ± 0.6	5.65 ± 0.38	13.1 ± 0.34
MATVPTRSGSPRQLTTKQTGDAWEAQARRWLEGKGLRFIAANVNERGGEIDLIMREGRTTIFVEVRYRRSALYGGAAASVTRSKQHKLLQTARLWLARHNGSFDTVDCRFDVVAFTGNEVEWIKDAFNDHS	6.46 ± 0.81	–	2.03	–	2.14	–	2.97	2.89 ± 0.49	–	–	1.88	3.74
MATYLIGDVHGCYDELIALLHKVEFTPGKDTLWLTGDLVARGPGSLDVLRYVKSLGDSVRLVLGNHDLHLLAVFAGISRNKPKDRLTPLLEAPDADELLNWLRRQPLLQIDEEKKLVMAHAGITPQWDLQTAKECARDVEAVLSSDSYPFFLDAMYGDMPNNWSPELRGLGRLRFITNAFTRMRFCFPNGQLDMYSKESPEEAPAPLKPWFAIPGPVAEEYSIAFGHWASLEGKGTPEGIYALDTGCCWGGTLTCLRWEDKQYFVQPSNRHKDLGEAAAS	4.24 ± 0.43	4.196 ± 0.017	3.52 ± 0.16	3.56 ± 0.044	3.68 ± 0.14	2.71 ± 0.18	4.718 ± 0.0074	6.99 ± 0.28	4.03 ± 0.15	5.76 ± 0.16	4.83 ± 0.51	9.31 ± 0.91
MAVAANKRSVMTLFSGPTDIYSHQVRIVLAEKGVSFEIEHVEKDNPPQDLIDLNPNQSVPTLVDRELTLWESRIIMEYLDERFPHPPLMPVYPVARGESRLYMHRIEKDWYTLMNTIINGSASEADAARKQLREELLAIAPVFGQKPYFLSDEFSLVDCYLAPLLWRLPQLGIEFSGPGAKELKGYMTRVFERDSFLASLTEAEREMRLGRS [P0ACA3]	5.94 ± 0.21	5.92 ± 0.064	5.87 ± 0.5	6.44 ± 0.27	5.54 ± 0.15	2.919 ± 0.029	5.9 ± 0.62	10.9 ± 0.67	5.8 ± 0.29	11.6 ± 0.58	5.85 ± 0.11	13.5 ± 1.2
MAVAMDNAILENILRQVRPLIGQGKVADYIPALATVDGSRLGIAICTVDGQLFQAGDAQERFSIQSISKVLSLVVAMRHYSEEEIWQRVGKDPSGSPFNSLVQLEMEQGIPRNPFINAGALVVCDMLQGRLSAPRQRMLEVVRGLSGVSDISYDTVVARSEFEHSARNAAIAWLMKSFGNFHHDVTTVLQNYFHYCALKMSCVELARTFVFLANQGKAIHIDEPVVTPMQARQINALMATSGMYQNAGEFAWRVGLPAKSGVGGGIVAIVPHEMAIAVWSPELDDAGNSLAGIAVLEQLTKQLGRSVY [P0A6W0]	5.51 ± 0.69	6.48 ± 0.19	6.52 ± 0.92	–	6.07 ± 0.46	3.12 ± 0.28	–	12.8 ± 0.64	5.88 ± 1.1	12.2 ± 1.5	5.82 ± 0.85	13.1 ± 0.95
MAVEVKYVVIREGEEKMSFTSKKEADAYDKMLDTADLLDTWLTNSPVQMEDEQREALSLWLAEQKDVLSTILKTGKLPSPQVVGAESEEEDASHAA [P0ACY9]	5.68 ± 0.58	–	0.932 ± 0.076	0.8842 ± 0.0032	2.19 ± 0.32	0.978 ± 0.016	1.17 ± 0.072	1.28	1.08	1.8 ± 0.069	0.976 ± 0.2	2.4
MAVSAKYDEFNHWWATEGDWVEEPNYRRNGMSGVQCVERNGKKLYVKRMTHHLFHSVRYPFGRPTIVREVAVIKELERAGVIVPKIVFGEAVKIEGEWRALLVTEDMAGFISIADWYAQHAVSPYSDEVRQAMLKAVALAFKKMHSINRQHGCCYVRHIYVKTEGNAEAGFLDLEKSRRRLRRDKAINHDFRQLEKYLEPIPKADWEQVKAYYYAM	5.26 ± 0.28	1.09	3.57	1.15 ± 0.09	0.534	–	–	–	0.927	–	0.144	–
MAVTKLVLVRHGESQWNKENRFTGWYDVDLSEKGVSEAKAAGKLLKEEGYSFDFAYTSVLKRAIHTLWNVLDELDQAWLPVEKSWKLNERHYGALQGLNKAETAEKYGDEQVKQWRRGFAVTPPELTKDDERYPGHDPRYAKLSEKELPLTESLALTIDRVIPYWNETILPRMKSGERVIIAAHGNSLRALVKYLDNMSEEEILELNIPTGVPLVYEFDENFKPLKRYYLGNADEIAAKAAAVANQGKAK	5.09 ± 0.33	5.4 ± 0.96	5.11 ± 0.76	5.42 ± 0.82	4.7 ± 0.09	3.18 ± 0.098	6.37 ± 0.56	10.3 ± 0.34	4.85 ± 0.46	8.63 ± 0.17	6.02 ± 0.45	12 ± 0.62
